The text below walks through data of patent US20160287687A1 (IMMATICS BIOTECHNOLOGIES, published 2016).

B1: YVLTQPPSV (SEQ ID NO: 68) (peptide)
peptide: YVLTQPPSV
notes: source genes IGLV3-21, IGLV2-14, IGLJ3, IGLC1, IGLC2

This experiment has as its target T1, HLA-A*02:01 (human).
T1 construct: MHC monomers first loaded with a UV-sensitive peptide (not identified) that is cleaved by UV light and exchanged for the test peptide; captured on streptavidin plates, detected with anti-β2m; also called peptide-receptive MHC molecules; MHC class I
The experiment can be described thus: UV-ligand exchange + anti-b2m ELISA; peptide exchange yield grade (+ >=10%, ++ >=20%, +++ >=50, ++++ >=75%). The text has this:
Candidate peptides for T cell based therapies according to the present invention were further tested for their MHC binding capacity (affinity). The individual peptide-MHC complexes were produced by UV-ligand exchange, where a UV-sensitive peptide is cleaved upon UV-irradiation, and exchanged with the peptide of interest as analyzed. Only peptide candidates that can effectively bind and stabilize the peptide-receptive MHC molecules prevent dissociation of the MHC complexes. To determine the yield of the exchange reaction, an ELISA was performed based on the detection of the light chain (β2m) of stabilized MHC complexes. The assay was performed as generally described in Rodenko et al. (Rodenko et al., 2006).
96 well MAXISorp plates (NUNC) were coated over night with 2 ug/ml streptavidin in PBS at room temperature, washed 4× and blocked for 1h at 37° C. in 2% BSA containing blocking buffer. Refolded HLA-A*02:01/MLA-001 monomers served as standards, covering the range of 15-500 ng/ml. Peptide-MHC monomers of the UV-exchange reaction were diluted 100 fold in blocking buffer. Samples were incubated for 1 h at 37° C., washed four times, incubated with 2 ug/ml HRP conjugated anti-β2m for 1h at 37° C., washed again and detected with TMB solution that is stopped with […]. Absorption was measured at 450 nm. Candidate peptides that show a high exchange yield (preferably higher than 50%, most preferred higher than 75%) are generally preferred for a generation and production of antibodies or fragments thereof, and/or T cell receptors or fragments thereof, as they show sufficient avidity to the MHC molecules and prevent dissociation of the MHC complexes.
In general terms: ELISA stands for enzyme-linked immunosorbent assay.
In the case of GLFHKQVTV (source gene PDZD2) [GLFHKQVTV (SEQ ID NO: 74)], the peptide exchange yield was in the range of 50 to 75%.
As for ILHHKVYDL (source gene CYB5A) [ILHHKVYDL (SEQ ID NO: 94)], the figure is 20 to 50%; as for FVMSEIRTV (source gene ZNF618) [FVMSEIRTV (SEQ ID NO: 85)], 50 to 75%; as for ALADIVWRA (source gene FAM188B) [ALADIVWRA (SEQ ID NO: 79)], 50 to 75%.
In the case of KLASMLETL (source gene PRKCDBP) [KLASMLETL (SEQ ID NO: 80)], the peptide exchange yield lay in the range of 50 to 75%.
With TLISELVQA (source gene CUL7) [TLISELVQA (SEQ ID NO: 97)] the figure was 20 to 50%; with GLLQGKLALL (source gene NQO2) [GLLQGKLALL (SEQ ID NO: 86)], 20 to 50%.
With SLLLAVTEV (source gene JAG2) [SLLLAVTEV (SEQ ID NO: 89)] the figure was 20 to 50%.
As for GLAPHLEQI (source gene IPO4) [GLAPHLEQI (SEQ ID NO: 99)], the figure is 20 to 50%; as for GLASFKSFL (source gene RGS5) [GLASFKSFL (SEQ ID NO: 8)], 20 to 50%; as for IIYGGSVTGA (source genes TPI1, TPI1P1) [IIYGGSVTGA (SEQ ID NO: 65)], 20 to 50%.
FLLSLIDRL (source gene EGLN3) [FLLSLIDRL (SEQ ID NO: 7)]: the peptide exchange yield was 50 to 75%.
With MLLSSLVSL (source gene VKORC1) [MLLSSLVSL (SEQ ID NO: 91)] the figure was 20 to 50%; with KIPPVSPSI (source gene ARRDC3) [KIPPVSPSI (SEQ ID NO: 98)], 20 to 50%; with LLAASVALA (source gene NPTX2) [LLAASVALA (SEQ ID NO: 64)], 20 to 50%.
As for GVMAGDIYSV (source gene PLIN2) [GVMAGDIYSV (SEQ ID NO: 93)], the figure is at least 75%.
As for GLIEDHFDVTV (source gene ERAP1) [GLIEDHFDVTV (SEQ ID NO: 63)], the figure is 20 to 50%; as for FLVDFEQSHL (source gene CYP2J2) [FLVDFEQSHL (SEQ ID NO: 58)], at least 75%.
For the molecule VLAGPAFLVQL (source gene SLC47A1) [VLAGPAFLVQL (SEQ ID NO: 62)], the peptide exchange yield is 50 to 75%.
On to IQWSIVPEV (source gene GRAMD4) [IQWSIVPEV (SEQ ID NO: 83)], for which the peptide exchange yield is 50 to 75%.
For ALDGHLYAV (source gene KBTBD11) [ALDGHLYAV (SEQ ID NO: 71)], the peptide exchange yield was 50 to 75%.
As to GLDGIPFTV (source gene TRIP6) [GLDGIPFTV (SEQ ID NO: 73)], the peptide exchange yield fell in the range of 50 to 75%.
Take ILMDFSNSM (source gene ITGB4) [ILMDFSNSM (SEQ ID NO: 56)]: the peptide exchange yield is 50 to 75%.
As for TLLKTIIKV (source gene CC2D2A) [TLLKTIIKV (SEQ ID NO: 66)], the figure is 20 to 50%; as for KLNVAPLAV (source genes MZT2A, MZT2B) [KLNVAPLAV (SEQ ID NO: 100)], 20 to 50%; as for SLLPALPKL (source gene LRP2) [SLLPALPKL (SEQ ID NO: 81)], 20 to 50%.
With ILWKDIEYV (source gene SYT9) [ILWKDIEYV (SEQ ID NO: 60)] the figure was 50 to 75%; with ILADLLPSL (source gene DHRS7B) [ILADLLPSL (SEQ ID NO: 69)], 20 to 50%; with YSLEKVFGI (source gene MAGED2) [YSLEKVFGI (SEQ ID NO: 72)], 20 to 50%.
FTLEKNFVI (source gene COL6A2) [FTLEKNFVI (SEQ ID NO: 90)]: the peptide exchange yield is 20 to 50%.
Consider YLMDEGAHL (source gene UGDH) [YLMDEGAHL (SEQ ID NO: 84)], for which the peptide exchange yield lay within 20 to 50%.
As to KLTDVGIATL (source gene ALPK2) [KLTDVGIATL (SEQ ID NO: 95)], the peptide exchange yield was in the range of 20 to 50%.
With FLIKSINLV (source gene KBTBD3) [FLIKSINLV (SEQ ID NO: 75)] the figure was 50 to 75%.
Turning to FLFRDILEL (source gene DROSHA) [FLFRDILEL (SEQ ID NO: 92)], the peptide exchange yield fell in the range of 50 to 75%.
With VLFELSKTV (source gene ATP11A) [VLFELSKTV (SEQ ID NO: 6)] the figure was 50 to 75%; with LLDVLAPLV (source gene COL18A1) [LLDVLAPLV (SEQ ID NO: 67)], 20 to 50%; with TLAETLVNL (source gene ANKRD52) [TLAETLVNL (SEQ ID NO: 96)], 50 to 75%.
Consider TLAELHISL (source gene NLRC5) [TLAELHISL (SEQ ID NO: 88)], for which the peptide exchange yield lay in the range of 20 to 50%.
SLKNNVVSV (source gene TGFBI) [SLKNNVVSV (SEQ ID NO: 59)]: the peptide exchange yield fell in the range of 50 to 75%.
As to B1, the peptide exchange yield fell in the range of 20 to 50%.
As for SLMGILLRI (source gene CARD8) [SLMGILLRI (SEQ ID NO: 61)], the figure is 20 to 50%.
As for ILLQKPDSV (source gene RGS5) [ILLQKPDSV (SEQ ID NO: 9)], the figure is 20 to 50%; as for SLLQATDFMSL (source gene THY1) [SLLQATDFMSL (SEQ ID NO: 82)], 50 to 75%; as for YLALILPVL (source gene SLC16A4) [YLALILPVL (SEQ ID NO: 55)], 20 to 50%.
Turning to LLFDVHTTL (source gene C5orf42) [LLFDVHTTL (SEQ ID NO: 102)], the peptide exchange yield was in the range of 50 to 75%.
HIYDKAFITV (source gene FLT1) [HIYDKAFITV (SEQ ID NO: 101)]: the peptide exchange yield lay in the range of 20 to 50%.
With SLQKEILYL (source gene ATG2B) [SLQKEILYL (SEQ ID NO: 57)] the figure was 20 to 50%; with VLADDHLIEV (source genes PDZK1P2, PDZK1, PDZK1P1) [VLADDHLIEV (SEQ ID NO: 76)], 20 to 50%; with SLIKHKIML (source gene ATP6V1A) [SLIKHKIML (SEQ ID NO: 77)], 20 to 50%.
With ALLDTVVQA (source genes CACNA1I, CACNA1H) [ALLDTVVQA (SEQ ID NO: 78)] the figure was 20 to 50%.
